± gives the uncertainty stated by the source.

The data set in a line: amyloid nucleation score (Sup35N fusion, yeast selection) (log enrichment); library NNK3; higher = more nucleation; inactive = no reads after selection. In outline:
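Peptides of 20 random codons fused to Sup35N were expressed in psi-negative yeast, induced 24 hours with 100 μM copper sulfate, then grown 7 days at 30°C on medium lacking adenine and uracil. Input and output plasmid inserts were Illumina-sequenced. Nucleation score is the DiMSum log enrichment of output over input reads, centred on the mode score of non-aggregating sequences, excluding sequences with under 100 input reads. Random libraries had three technical output replicates.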
Turning to FFLAFKEQPRAYLISISTH, the amyloid nucleation score result was “inactive”.

Turning to QFLRGVMPAGMECAHATMRW, the amyloid nucleation score result is “inactive”.

For the substance IWRLCNVPICPSLRGAGHYS, the amyloid nucleation score entry was “inactive”.

In the case of LWCCEYRNRAATMRVPDPEL, the amyloid nucleation score entry is “inactive”.

In the case of PDLIHFTCLSSWFSSVVALV, the amyloid nucleation score entry is “inactive”.

In the case of SIWEHRSNS, the amyloid nucleation score entry is “inactive”.

Turning to LFDFADSMVRQVRTDAKRLN, the amyloid nucleation score entry was “inactive”.

Take SRFYTL: the amyloid nucleation score result is “inactive”.

SPALQMWKACTWLNRTLSPV showed an amyloid nucleation score of 0.582 ± 0.15.

Turning to YLLSVYLLVATSCMYGNMGE, the amyloid nucleation score entry is “inactive”.

On to CNYCGPEAFGILFDYWTMSY, for which the amyloid nucleation score entry was “inactive”.

TISSSLKRMWDIVFSLCNNI: the amyloid nucleation score result is “inactive”.

Consider IGPIWVPYHMSIIRSLLFGI, for which the amyloid nucleation score result is “inactive”.

CYFSIYYYSYLLFRMLGVKW: the amyloid nucleation score entry is “inactive”.

Consider RHELTNRREK, for which the amyloid nucleation score result was “inactive”.

Take RWLFRSWPGRRMA: the amyloid nucleation score result is “inactive”.

As to AHGTMGGNYGRNVQLDDRLN, the amyloid nucleation score entry was “inactive”.

Consider SYPGRLYSSGYDCVYSNRSR, for which the amyloid nucleation score result is “inactive”.

In the case of NMRTCSIGSKPIVKFTYMCG, the amyloid nucleation score worked out at 1.31 ± 0.15.

On to NVRSNFLVADVVVFVRKIVR, for which the amyloid nucleation score stood at 2.42 ± 0.072.

The substance WAGLHRVRFES registered an amyloid nucleation score of -0.26 ± 0.42.

Turning to LFVMGRFVSFALFTWKTDNV, the amyloid nucleation score entry is “inactive”.

Consider YVSLVSLCMCIRLQGEFLYG, for which the amyloid nucleation score came to 1.24 ± 0.089.

SRNYLVSPIDAPEQQSCVEE: the amyloid nucleation score result is “inactive”.

The substance SSYFYHNVILPTHIYNFSVI showed an amyloid nucleation score of 2.27 ± 0.08.

Turning to GSMTFNYTLEGLNYHNDTKE, the amyloid nucleation score result is “inactive”.

For the substance ARICVRAFKETCDYKLGCST, the amyloid nucleation score came out at 0.052 ± 0.66.

In the case of DASSDRVSVYSAYK, the amyloid nucleation score entry was “inactive”.

Consider LGDDVFSLAFGDNFKDHKFH, for which the amyloid nucleation score result is “inactive”.

Turning to NFSCCLSCRQHMLAIFM, the amyloid nucleation score is 0.988 ± 0.13.

For the substance KFLRVFVKRTLESLRRVTSV, the amyloid nucleation score result is “inactive”.

As for IWWILIDP, the amyloid nucleation score entry is “inactive”.

The substance SPYNPHAFVTYSFCVYKD showed an amyloid nucleation score of 1.88 ± 0.098.

For SWRLYMMA, the amyloid nucleation score entry is “inactive”.

For FYIKVVNPCIPYT, the amyloid nucleation score result is “inactive”.

FFYNYSRSGLCYIIFSESPV showed an amyloid nucleation score of 1.33 ± 0.095.

CPTPGWTLKRVGRVYECRG: the amyloid nucleation score result was “inactive”.

For LRSLLNQVMSYSMYILYNSQ, the amyloid nucleation score result was “inactive”.

TLWCNLSSGMMNFPTASRNL showed an amyloid nucleation score of 1 ± 0.091.

Regarding FFFTATLNQLSYTYIFSKLA, the amyloid nucleation score entry was “inactive”.

IPERMRWVWEVTRAYNNYAW: the amyloid nucleation score entry is “inactive”.

Consider VILMFDSCGGFDW, for which the amyloid nucleation score entry was “inactive”.

Regarding LVDLSRSISKSPMQKYRF, the amyloid nucleation score result was “inactive”.

For the substance ILGIIMI, the amyloid nucleation score entry is “inactive”.

For LHGWFLNLLIFYAMRLRSVL, the amyloid nucleation score entry is “inactive”.

Consider PNGSYAKQLLVSIL, for which the amyloid nucleation score entry is “inactive”.

In the case of GNIEGVRNVVALTMHVVNWV, the amyloid nucleation score came out at 2.2 ± 0.091.

On to SSFNIPMPSNYPKMIDLLFT, for which the amyloid nucleation score entry is “inactive”.

With GLHLYEFRGRCNTSVDSQTK, the amyloid nucleation score result is “inactive”.

Take HVFCHVPNPCLVGSMLTLGD: the amyloid nucleation score entry was “inactive”.

In the case of VNIRLMVKIRFDSVLRILPY, the amyloid nucleation score turned out to be 0.509 ± 0.31.

For SVLVIFVLLSIGSAVKLNYG, the amyloid nucleation score entry was “inactive”.

As to ISMDRYHNTRHSVNRILLTC, the amyloid nucleation score result is “inactive”.

For the substance AAEPEVDNSYTAGDSGTRGT, the amyloid nucleation score entry was “inactive”.

On to RNRLN, for which the amyloid nucleation score entry was “inactive”.

Regarding DDLMASTMGSSMG, the amyloid nucleation score entry was “inactive”.

With LARQFF, the amyloid nucleation score result was “inactive”.

As to QGHNHYVTILRFIWFLRPAM, the amyloid nucleation score result was “inactive”.

For PGSLI, the amyloid nucleation score is -0.219 ± 0.52.

For the substance GRRYRKFDNTGGNSPK, the amyloid nucleation score entry was “inactive”.

Turning to LTEMVLPLVHHLKTWSFVQE, the amyloid nucleation score entry was “inactive”.

For KNINVLYHICAALKSCAFCT, the amyloid nucleation score entry was “inactive”.

Take ILPTAKKSKCGSHL: the amyloid nucleation score result is “inactive”.

MNRTFVIIVKNVASMIKDNR came in with an amyloid nucleation score of 2.1 ± 0.1.

In the case of TKCTYKLGYTLYTGVKDVVR, the amyloid nucleation score result was “inactive”.

Substance VYFDDRTYRYRVAHIKFSFR registered an amyloid nucleation score of 2.94 ± 0.076.

Turning to NMPYSCKRLWRDKCQMWEYR, the amyloid nucleation score entry is “inactive”.

Turning to MHLDYGC, the amyloid nucleation score result was “inactive”.

In the case of VAQRELWEEAIRCRYEH, the amyloid nucleation score result is “inactive”.

As to VCAVSFGRWYG, the amyloid nucleation score entry is “inactive”.

Turning to IWISYRMVSFEASKQSVVL, the amyloid nucleation score result was “inactive”.

With MIRMIMLSRSDRPGVSRKLD, the amyloid nucleation score result is “inactive”.

Consider LIKWFSFRWLVTILVIDQTY, for which the amyloid nucleation score result is “inactive”.

Turning to PVRIVLVKPGIFMLDVTYSP, the amyloid nucleation score entry was “inactive”.

For the substance LYLYSWFC, the amyloid nucleation score entry was “inactive”.

Regarding YYVTQGVRVGQYLTNRERDE, the amyloid nucleation score was -0.195 ± 0.44.

As to WPLRGRSMLQWLSCHIQWAG, the amyloid nucleation score result was “inactive”.

SPEPSVNRKHLVPLLPAAFE: the amyloid nucleation score entry is “inactive”.

With LVLSVWKLKLSGLALIFWYG, the amyloid nucleation score entry is “inactive”.

Consider SFRMSTSCWSSGALMYRLYR, for which the amyloid nucleation score entry is “inactive”.

With LFSMEKGEYGNRRGYAVYFL, the amyloid nucleation score came out at 1.74 ± 0.084.

Regarding CEMVCSTVIPIEVTSWLVMV, the amyloid nucleation score result is “inactive”.

In the case of RLFTTLVRDLTENCIRFLWT, the amyloid nucleation score result was “inactive”.

Consider LNFTCEVGGVYEVDVNSCLL, for which the amyloid nucleation score entry was “inactive”.

Consider SAWVVFVVFFVSFDPDILFY, for which the amyloid nucleation score entry is “inactive”.

For the substance DSGVSEQWGGGIELILSWCL, the amyloid nucleation score entry was “inactive”.

In turn, CNFNLILLMDGIKGSFL displayed an amyloid nucleation score of 2.35 ± 0.065.

In the case of ERRIKDLTECSNR, the amyloid nucleation score result is “inactive”.

For the substance ASCPLSKKWMELGKCAGPTH, the amyloid nucleation score entry was “inactive”.

For MGGLIFVSLKAWSIILHYNK, the amyloid nucleation score entry was “inactive”.

Turning to YSPTAN, the amyloid nucleation score entry is “inactive”.

Turning to DVGYSDMLVA, the amyloid nucleation score result is “inactive”.

With TSMMSWQSSHCHVYWRTDWV, the amyloid nucleation score amounted to 0.457 ± 0.4.

As for LVRCSNTR, the amyloid nucleation score entry is “inactive”.

For CSRSSLLLVDWPMVGSDKLL, the amyloid nucleation score result is “inactive”.

With QNNRHISHLGLQGDEQALVY, the amyloid nucleation score entry is “inactive”.

The substance VCVRYFGDIFYVLYTFVMRA gave an amyloid nucleation score of 0.051 ± 0.46.

Substance WVSFCVCWNFNLY came in with an amyloid nucleation score of 3.18 ± 0.064.

Regarding LDTSNMPTYGLKSEVSVIAR, the amyloid nucleation score entry is “inactive”.

TLVSQMPCNM: the amyloid nucleation score result was “inactive”.

In the case of IVVCAQTLHSLGPRPIEPTQ, the amyloid nucleation score entry was “inactive”.

For the substance KLFRIKNGSVEVIWYRNMCQ, the amyloid nucleation score stood at 0.973 ± 0.14.

YMPFYDSCVRHAYRSSFR: the amyloid nucleation score was found to be 0.038 ± 0.43.

CVSNLLTTYNNAFRFAHMVS: the amyloid nucleation score entry is “inactive”.

The substance RCVLRW gave an amyloid nucleation score of 1.34 ± 0.12.

With RLTRVVIMQRFIGEVRLSAL, the amyloid nucleation score entry was “inactive”.

As for LVNLCRIRRVLECVRRRHRS, the amyloid nucleation score entry was “inactive”.

On to IYRQDCGFSPKNRKMVSGAA, for which the amyloid nucleation score result was “inactive”.

LSFFGSYSSSRLF had an amyloid nucleation score of 1.43 ± 0.11.

In the case of HSAYVVKWSSRTTPKFFSLW, the amyloid nucleation score result was “inactive”.

For the substance SGKGKCVYNVLRQGFFSKMS, the amyloid nucleation score result was “inactive”.

Take SAEVAYGSFVYAGSWCRSVR: the amyloid nucleation score result is “inactive”.

Regarding YYKRYGGYPGNQHMSVGHRF, the amyloid nucleation score entry is “inactive”.

As for ETPSALCILYVFYCHAYWSH, the amyloid nucleation score result was “inactive”.

As to VYMVTDRGR, the amyloid nucleation score entry is “inactive”.

Turning to MDVWASYMTVSESVCSSLVR, the amyloid nucleation score entry was “inactive”.

Take RWELGIQALVR: the amyloid nucleation score entry is “inactive”.

Regarding GCFDVPNCVSFQSFRACGKG, the amyloid nucleation score result was “inactive”.

For VIALDVNL, the amyloid nucleation score result is “inactive”.

As for SSIDEIGSFV, the amyloid nucleation score result was “inactive”.

For SDDDSYLWSSLFQA, the amyloid nucleation score result was “inactive”.

Regarding HSLTENAKREIT, the amyloid nucleation score result is “inactive”.

In the case of KFGVLRLVFSTLVSTLSRMV, the amyloid nucleation score entry was “inactive”.

Take FFSCGDKLSFF: the amyloid nucleation score entry is “inactive”.

For the substance GGNGVPRVWSVFIRRVWNSV, the amyloid nucleation score result is “inactive”.

In turn, RLLGTRSYTIWACYTCAVFM came in with an amyloid nucleation score of 2.15 ± 0.088.

In the case of MFIFGGISFVMVSYLNRAHT, the amyloid nucleation score worked out at 1.13 ± 0.1.

Take NMRYKHAWNLEVVVLKVHVY: the amyloid nucleation score result was “inactive”.

Consider GLMLYTSMVGSYDDWPD, for which the amyloid nucleation score entry was “inactive”.

In the case of LVVTTPLRRGKDLDSMRYTC, the amyloid nucleation score result is “inactive”.

These data come from the supplement of paper PMC12042874.
